From the supplement of paper PMC9112550, “Optimization of the antimicrobial peptide Bac7 by deep mutational scanning” (BMC Biology, 2022)

system: Escherichia coli TOP10; assay: shrunken log2 fold change of peptide-encoding DNA abundance (4.5 h post-induction vs induction); higher = less antimicrobial activity (less host growth inhibition); conditions: time post-induction: 4.5 h; library: site-saturation at positions 5, 18, 19, 20
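Further: peptides expressed intracellularly from a pBAD plasmid library in pooled LB shake-flask culture, induced with 0.3% L-arabinose, DNA abundance read by NGS, three biological replicates, DESeq2 with apeglm shrinkage.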

Sequence | shrunken log2 fold change
RRIRARPPRLPRPRPRPQGLPRP | 0.208
RRIRIRPPRLPRPRPRPDIPPRP | -0.112
RRIRQRPPRLPRPRPRPYQCPRP | -0.263
RRIRPRPPRLPRPRPRPGLMPRP | 0.184
RRIRNRPPRLPRPRPRPQGRPRP | -0.0865
RRIRGRPPRLPRPRPRPYEKPRP | -0.0149
RRIRTRPPRLPRPRPRPHIHPRP | -0.102
RRIRIRPPRLPRPRPRPKASPRP | -0.0616
RRIRQRPPRLPRPRPRPDSWPRP | 0.0403
RRIRFRPPRLPRPRPRPSIRPRP | -0.288
RRIRVRPPRLPRPRPRPDIFPRP | -0.171
RRIRMRPPRLPRPRPRPQHGPRP | 0.0121
RRIRIRPPRLPRPRPRPEISPRP | -0.481
RRIRKRPPRLPRPRPRPGLIPRP | 0.13
RRIRYRPPRLPRPRPRPRWIPRP | -0.553
RRIRPRPPRLPRPRPRPSYIPRP | -0.458
RRIRDRPPRLPRPRPRPNYTPRP | -0.771
RRIRVRPPRLPRPRPRPCHMPRP | -0.19
RRIRYRPPRLPRPRPRPLVTPRP | -0.616
RRIRKRPPRLPRPRPRPNVVPRP | 0.0163
RRIRRRPPRLPRPRPRPPAEPRP | 0.851
RRIRPRPPRLPRPRPRPIMQPRP | -0.391
RRIRKRPPRLPRPRPRPRLGPRP | 0.587
RRIRPRPPRLPRPRPRPDISPRP | 0.0683
RRIRDRPPRLPRPRPRPWKCPRP | 0.118

Sequence | shrunken log2 fold change
RRIRDRPPRLPRPRPRPMTNPRP | -0.184
RRIRSRPPRLPRPRPRPMCGPRP | -0.145
RRIRSRPPRLPRPRPRPTMSPRP | -0.0133
RRIRNRPPRLPRPRPRPHVHPRP | -0.109
RRIRERPPRLPRPRPRPWYSPRP | -0.798
RRIRWRPPRLPRPRPRPFTMPRP | -0.36
RRIRIRPPRLPRPRPRPSTQPRP | -0.0353
RRIRGRPPRLPRPRPRPGRPPRP | 0.737
RRIRFRPPRLPRPRPRPMQLPRP | 0.0166
RRIRPRPPRLPRPRPRPPNEPRP | -0.0989
RRIRPRPPRLPRPRPRPCMAPRP | -0.151
RRIRVRPPRLPRPRPRPNFSPRP | -0.153
RRIRWRPPRLPRPRPRPDCHPRP | -0.346
RRIRYRPPRLPRPRPRPADEPRP | -0.451
RRIRIRPPRLPRPRPRPCPPPRP | -0.328
RRIRRRPPRLPRPRPRPVPTPRP | 0.472
RRIRFRPPRLPRPRPRPWFLPRP | -1.15
RRIRQRPPRLPRPRPRPMWHPRP | -0.18
RRIRCRPPRLPRPRPRPCHYPRP | -0.403
RRIRNRPPRLPRPRPRPRECPRP | 0.0263
RRIRIRPPRLPRPRPRPRHRPRP | -0.0972
RRIRKRPPRLPRPRPRPHQYPRP | -0.293
RRIRARPPRLPRPRPRPKNDPRP | 0.222
RRIRHRPPRLPRPRPRPSNNPRP | -0.549
RRIRARPPRLPRPRPRPCRQPRP | -0.0784

Sequence | shrunken log2 fold change
RRIRARPPRLPRPRPRPYAAPRP | 0.375
RRIRVRPPRLPRPRPRPARIPRP | 0.149
RRIRNRPPRLPRPRPRPAVCPRP | 0.158
RRIRLRPPRLPRPRPRPPFRPRP | 0.526
RRIRMRPPRLPRPRPRPRKLPRP | 0.857
RRIRFRPPRLPRPRPRPCDTPRP | -0.09
RRIRKRPPRLPRPRPRPMFWPRP | 0.173
RRIRIRPPRLPRPRPRPWYDPRP | -0.0891
RRIRKRPPRLPRPRPRPPIQPRP | 0.304
RRIRHRPPRLPRPRPRPGEIPRP | 0.761
RRIRYRPPRLPRPRPRPETQPRP | -0.00798
RRIRYRPPRLPRPRPRPGVNPRP | -3.04
RRIRFRPPRLPRPRPRPILLPRP | -0.554
RRIRIRPPRLPRPRPRPPVKPRP | -0.156
RRIRQRPPRLPRPRPRPCILPRP | -0.458
RRIRWRPPRLPRPRPRPSNEPRP | 0.0555
RRIRKRPPRLPRPRPRPFFHPRP | 0.203
RRIRDRPPRLPRPRPRPFNFPRP | -0.703
RRIRMRPPRLPRPRPRPSDSPRP | 0.0495
RRIRRRPPRLPRPRPRPIKNPRP | 0.278
RRIRYRPPRLPRPRPRPKAVPRP | -0.163
RRIRWRPPRLPRPRPRPCPKPRP | -0.0941
RRIRIRPPRLPRPRPRPGWGPRP | 0.308
RRIRCRPPRLPRPRPRPLCMPRP | -0.0162
RRIRCRPPRLPRPRPRPGYGPRP | -0.273

Sequence | shrunken log2 fold change
RRIRERPPRLPRPRPRPHMSPRP | -0.27
RRIRPRPPRLPRPRPRPITAPRP | -0.187
RRIRCRPPRLPRPRPRPAIWPRP | 0.346
RRIRIRPPRLPRPRPRPFCAPRP | -0.088
RRIRVRPPRLPRPRPRPSCEPRP | -0.303
RRIRARPPRLPRPRPRPEPKPRP | 1.36
RRIRKRPPRLPRPRPRPGFTPRP | 0.0173
RRIRFRPPRLPRPRPRPQPDPRP | 0.254
RRIRFRPPRLPRPRPRPFCQPRP | -0.317
RRIRARPPRLPRPRPRPGPKPRP | 0.421
RRIRRRPPRLPRPRPRPKWTPRP | -0.149
RRIRLRPPRLPRPRPRPILFPRP | -0.0559
RRIRDRPPRLPRPRPRPDNLPRP | 0.0916
RRIRNRPPRLPRPRPRPGETPRP | 0.0546
RRIRCRPPRLPRPRPRPAKEPRP | -0.0092
RRIRWRPPRLPRPRPRPSGDPRP | 0.537
RRIRIRPPRLPRPRPRPPMRPRP | 0.591
RRIRLRPPRLPRPRPRPGCIPRP | -0.346
RRIRIRPPRLPRPRPRPLDQPRP | -0.127
RRIRVRPPRLPRPRPRPCDWPRP | 0.192
RRIRCRPPRLPRPRPRPQHFPRP | -0.0667
RRIRPRPPRLPRPRPRPLNYPRP | -0.615
RRIRGRPPRLPRPRPRPGRIPRP | 0.153
RRIRIRPPRLPRPRPRPQSLPRP | -0.321
RRIRLRPPRLPRPRPRPFRRPRP | -0.0943

Sequence | shrunken log2 fold change
RRIRDRPPRLPRPRPRPDSDPRP | 0.0999
RRIRDRPPRLPRPRPRPFCWPRP | 0.445
RRIRARPPRLPRPRPRPSNFPRP | -0.221
RRIRWRPPRLPRPRPRPSEKPRP | -0.153
RRIRIRPPRLPRPRPRPVEEPRP | -0.0729
RRIRVRPPRLPRPRPRPDVAPRP | -0.0974
RRIRVRPPRLPRPRPRPCFWPRP | -0.0218
RRIRIRPPRLPRPRPRPKNCPRP | -0.164
RRIRERPPRLPRPRPRPFEQPRP | -0.126
RRIRLRPPRLPRPRPRPDMLPRP | -0.125
RRIRGRPPRLPRPRPRPWPAPRP | 0.763
RRIRNRPPRLPRPRPRPSYKPRP | -0.819
RRIRNRPPRLPRPRPRPDQWPRP | 0.0039
RRIRSRPPRLPRPRPRPDAMPRP | 0.83
RRIRTRPPRLPRPRPRPGLDPRP | 0.0222
RRIRGRPPRLPRPRPRPFNTPRP | -0.309
RRIRDRPPRLPRPRPRPQERPRP | 0.0671
RRIRIRPPRLPRPRPRPINGPRP | -0.383
RRIRVRPPRLPRPRPRPQAWPRP | 0.416
RRIRKRPPRLPRPRPRPRSEPRP | -0.00081
RRIRKRPPRLPRPRPRPKLAPRP | 1.58
RRIRCRPPRLPRPRPRPCKMPRP | 5.36
RRIRPRPPRLPRPRPRPWCEPRP | -0.0374
RRIRNRPPRLPRPRPRPNWSPRP | -0.106
RRIRRRPPRLPRPRPRPDWKPRP | 0.192

Sequence | shrunken log2 fold change
RRIRFRPPRLPRPRPRPTMIPRP | -0.941
RRIRSRPPRLPRPRPRPCLRPRP | -0.385
RRIRVRPPRLPRPRPRPAHCPRP | 0.122
RRIRVRPPRLPRPRPRPIWTPRP | -0.0382
RRIRIRPPRLPRPRPRPLVIPRP | -1.46
RRIRCRPPRLPRPRPRPPENPRP | 0.2
RRIRIRPPRLPRPRPRPDAIPRP | 0.0309
RRIRERPPRLPRPRPRPPLDPRP | 0.0357
RRIRLRPPRLPRPRPRPEVYPRP | 0.0314
RRIRSRPPRLPRPRPRPIMKPRP | -0.292
RRIRPRPPRLPRPRPRPRVQPRP | 0.398
RRIRNRPPRLPRPRPRPAIGPRP | 0.0499
RRIRLRPPRLPRPRPRPEHGPRP | 0.00489
RRIRDRPPRLPRPRPRPETVPRP | -0.0114
RRIRERPPRLPRPRPRPASRPRP | 0.0348
RRIRLRPPRLPRPRPRPTWLPRP | 0.584
RRIRFRPPRLPRPRPRPHQSPRP | -0.114
RRIRCRPPRLPRPRPRPHHKPRP | -0.857
RRIRYRPPRLPRPRPRPCDIPRP | -0.334
RRIRFRPPRLPRPRPRPVGPPRP | 0.405
RRIRYRPPRLPRPRPRPNEVPRP | -0.00663
RRIRYRPPRLPRPRPRPVREPRP | 0.484
RRIRDRPPRLPRPRPRPKAAPRP | 0.0214
RRIRKRPPRLPRPRPRPPWTPRP | 0.527
RRIRFRPPRLPRPRPRPRYCPRP | -0.647
